From publication PMC6760278

Target: T1, OsNPPR1-repeat-MBP (Oryza sativa (rice), UniProt Q6Z2B6 182-806)
T1 sequence: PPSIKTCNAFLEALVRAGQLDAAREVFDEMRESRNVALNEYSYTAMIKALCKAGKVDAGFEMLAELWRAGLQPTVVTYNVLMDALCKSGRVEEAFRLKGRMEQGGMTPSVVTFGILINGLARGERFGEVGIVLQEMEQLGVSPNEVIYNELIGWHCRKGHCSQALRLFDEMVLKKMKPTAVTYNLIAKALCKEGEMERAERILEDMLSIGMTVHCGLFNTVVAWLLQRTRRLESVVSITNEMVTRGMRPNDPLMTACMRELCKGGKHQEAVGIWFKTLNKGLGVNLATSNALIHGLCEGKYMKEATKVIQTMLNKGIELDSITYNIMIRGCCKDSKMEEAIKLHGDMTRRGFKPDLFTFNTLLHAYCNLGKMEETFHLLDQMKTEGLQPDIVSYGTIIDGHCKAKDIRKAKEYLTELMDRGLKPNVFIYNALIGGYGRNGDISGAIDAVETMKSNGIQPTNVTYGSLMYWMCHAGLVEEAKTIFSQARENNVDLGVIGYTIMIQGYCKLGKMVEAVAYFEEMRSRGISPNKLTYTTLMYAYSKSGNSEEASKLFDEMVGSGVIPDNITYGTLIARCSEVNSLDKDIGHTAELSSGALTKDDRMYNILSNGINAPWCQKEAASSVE
Assay: EMSA

B1: CUCAC probe (ssRNA)
RNA: CUCACCUCACCUCACCUCACCUCACCUCAC
  binding result: binds
